Reference: patent US20130252821A1, “METHODS AND COMPOSITIONS FOR THE TREATMENT AND DIAGNOSIS OF DISEASES CHARACTERIZED BY VASCULAR LEAK, HYPOTENSION, OR A PROCOAGULANT STATE” (Beth Israel Deaconess Medical Center, Inc., priority 2005, published 2013)

How the values were obtained:
HMVEC monolayers = assay: Immunofluorescence of endothelial architecture (F-actin, VE-cadherin); assay type: cell-based, human; settings: 10% patient serum plus 100 ng/ml recombinant human Ang-1
Experimental: HMVEC were grown to confluence on glass coverslips coated with 1% gelatin. The cells were fixed for 10 minutes in 4% paraformaldehyde in PBS, incubated for 5 min in 0.5% Triton X-100 in PBS. After blocking, the monolayers were processed for staining with anti-VE-cadherin monoclonal antibody (BD Pharmingen, San Diego, Calif.) and Alexa Fluoro 488 goat anti-mouse IgG, rhodamine phalloidin (Molecular Probe, Eugene, Oreg.) for F-actin staining and TOPRO-3-iodine (Molecular Probe) for nuclear staining. Fluorescence images were obtained using a Bio Rad MRC confocal fluorescence microscope. For human subject serum experiments, serum was diluted to 10% with EBM-2 and filtered with low protein binding PVDF membrane (0.22 μm, Millipore Corp) prior to application on endothelial cell monolayers.

Rac1 = Rac1 activity assay (pull-down); assay type: cell-based, human
Experimental: (§1) These were performed and quantified using the commercially available kit according to the manufacturer's instruction (Cytoskeleton, Denver, Colo.). After signal starvation, HMVEC-L were treated with vehicle, Ang-1 (100 ng/ml) with or without inhibitor for the indicated time and harvested with lysis buffer. Following a brief centrifugation to remove cell debris, lysates from the cells containing equivalent protein concentrations were incubated for 60 minutes with 40 μL slurry of a GST-fusion protein composed of Rac1 or RhoA effector proteins coupled to agarose beads. After washing with lysis buffer, samples were subjected to immunoblotting and detected with anti-Rac1 or anti-RhoA antibody (Santa Cruz Biotechnology, Santa Cruz, Calif.). Whole cell lysates were also run to determine the total amount of Rac1 or RhoA protein.

RhoA = assay: Rho activity assay (pull-down) in HMVEC-L; assay type: cell-based, human
Experimental: as §1

HMVEC-L = assay: Immunohistochemistry of HMVEC-L (F-actin, MLC-P, VE-cadherin); assay type: cell-based, human
Experimental: HMVEC-L were grown to confluent on glass coverslips coated with 0.1% gelatin (Attachment factor, Cascade Biologics, Portland, Oreg.) in 5% FBS/EGM2. […] We used rhodamine phalloidin (Molecular Probe) for F-actin staining and TOPRO®-3-iodine (Molecular Probe) for nuclear staining. Fluorescence images were obtained using a Bio Rad MRC confocal fluorescence microscope.

[1] = tested on: mice (female FVB strain), lung; assay: In vivo permeability assay (Evans blue, LPS); set-up: species or system mouse; settings: Ang-1 10 mcg ip x 2 doses
Experimental: Mice (8-12 weeks old, female FVB strain) were pretreated with Ang-1 (10 mcg, ip). 8 hours after the first Ang-1 injection, the second dose of Ang-1 (10 mcg, ip) and LPS (100 μg, ip) were co-injected. Lung permeability was assessed 16 hours after the second injection. Mice were anesthetized with Avertin (2,2,2-Tribromoethanol) and 2% Evans blue (50 μl) was then injected into the retro-orbital sinus. Ten minutes after Evans blue injection, mice were sacrificed and perfused with PBS with 2 mM EDTA for 10 minutes through a cannula placed in the right ventricle. […] Organs were then harvested and homogenized in 1.5 nil formamide. Evans blue was extracted by incubating the samples at 70° C. for 24 hours, and the concentration of Evans blue was estimated by dual-wavelength spectrophotometer (620 and 740 nm). The following formula was used to correct optical densities (E) for contamination with heme pigments: E620 (corrected)=E620−(1.426XE740+0.030).

[2] = tested on: mice (female FVB strain), lung; assay: Lung histology after LPS; assay type: in vivo, mouse; settings: Ang-1 10 μg ip x 2 doses
Experimental: Mice were treated as above and lungs were harvested, fixed in 10% formalin, embedded in paraffin, sectioned, and stained with hematoxilin and eosin. In Vivo Delivery of siRNA: Delivery of siRNA into mice was performed by TransIT® Hydrodynamic delivery solution (Mires, Madision, Wis.) per the manufacturer's instruction. Mice were injected with either 10 μg control siRNA or 10 μg p190RhoGAP siRNA in 2 nil delivery solution injected into the tail vein over 7 seconds. Four days later, p190RhoGAP knockdown was confirmed by lysing organs in RIPA buffer and performing Western analysis as outlined above. In vivo permeability and histological examination were performed as described above.

p85 subunit of PI3K = assay: PI3K activity assay (p85 phosphorylation ELISA); assay type: cell-based, human; settings: Ang-1 100 ng/ml, 15 minutes
Experimental: After signal starvation, HMVEC-L were treated with vehicle or Ang-1 (100 ng/ml) for 15 minutes. Total and phosphorylated p85 subunits of PI3K were quantified using a commercial enzyme-linked immunosorbent assay according to the manufacturer's instruction (Active Motif, Carlsbad, Calif.). Phosphorylated PI3K p85 subunit was corrected by total PI3K.

Akt = Akt phosphorylation (Western blot) in HMVEC-L; assay type: cell-based, human; settings: Ang-1 100 ng/ml, 15 minutes
Experimental: HMVEC-L were washed with ice-cold PBS three times and lysed with ice-cold RIPA buffer (50 mM Tris-HCl pH7.4, 150 mM NaCl, 1% NP-40, 0.5% Sodium Deoxycholate, 0.1% SDS and 1 mM EDTA) supplemented with protease inhibitors (Roche Diagnostics, Indianapolis, Ind.), 1 mM NaF and 1 mM Na3VO4. Lysates were sonicated and centrifuged at 10,000 rpm for 10 minutes at 4° C., and supernatants were collected. Protein concentrations were determined by BCA protein assay with bovine serum albumin as standard (Pierce, Rockford, Ill.). Lysates were electrophoresed using NuPAGE system (Invitrogen Life Technologies, Franklin Lakes, N.J.) and transferred to PVDF membrane and immunoblotted with specific primary antibodies. Binding of primary antibodies was detected using horseradish peroxidase-conjugated secondary antibodies (Amersham Bioscience, Piscataway, N.J.) and SuperSignal WestDura (Pierce) as a chemiluminescence substrate. Primary antibodies were obtained from these suppliers: anti-phospho-Akt Ab (Ser 473), anti-Akt Ab and anti-phospho-myosin light chain 2 (Ser19) Ab were from Cell Signaling Technology; anti-GAPDH Ab was from Chemicon International (Temecula, Calif.).

p190RhoGAP = p190RhoGAP phosphorylation in HMVEC-L; assay type: cell-based, human; settings: Ang-1 100 ng/ml
Experimental: We lysed HMVEC-L with Triton buffer (50 mM Tris-HCl pH 8.0, 150 mM NaCl, 1% Triton X 100, and 5 mM EDTA) supplemented with protease inhibitors (Roche Diagnostics), 1 mM NaF and 1 mM Na3VO4, adjusting protein concentration by BCA protein assay (Pierce) and incubated 200 μg of total protein with anti-Tie2-Ab (clone Ab33, Upstate, Lake Placid, N.Y.) or p190RhoGAP Ab (Transduction laboratory, Lexington, Ky.) for 3 hours, followed by incubation with protein A sepharose (Zymed, San Francisco, Calif.) for 2 hours at 4° C. After washing the beads, proteins were eluted by heating in SDS-sample buffer and detected by immunoblotting with anti-phospho-tyrosine (clone 4G10, Upstate), anti-Tie-2 Ab, or anti-p190RhoGAP Ab.

B1: Ang-1: Human recombinant angiopoietin-1 purchased from R&D systems; Tie-2 agonist, endogenous Ang-2 antagonist (protein, listed as Homo sapiens)
chain: MTVFLSFAFLAAILTHIGCSNQRRSPENSGRRYNRIQHGQCAYTFILPEHDGNCRESTTDQYNTNALQRDAPHVEPDFSSQKLQHLEHVMENYTQWLQKLENYIVENMKSEMAQIQQNAVQNHTATMLEIGTSLLSQTAEQTRKLTDVETQVLNQTSRLEIQLLENSLSTYKLEKQLLQQTNEILKIHEKNSLLEHKILEMEGKHKEELDTLKEEKENLQGLVTRQTYIIQELEKQLNRATTNNSVLQKQQLELMDTVHNLVNLCTKEGVLLKGGKREEEKPFRDCADVYQAGFNKSGIYTIYINNMPEPKKVFCNMDVNGGGWTVIQHREDGSLDFQRGWKEYKMGFGNPSGEYWLGNEFIFAITSQRQYMLRIELMDWEGNRAYSQYDRFHIGNEKQNYRLYLKGHTGTAGKQSSLILHGADFSTKDADNDNCMCKCALMLTGGWWFDACGPSNLNGMFYTAGQNHGKLNGIKWHYFKGPSYSLRSTTMMIRPLDF
In the case of B1, the “reversal of gap formation provoked by high Ang-2 sepsis serum” value (HMVEC monolayers) is reported as “reversed”, the Rac1 activity (Rac1; HMVEC-L treated with Ang-1) is reported as “increased within 15 minutes” and the “effect on endotoxin-induced change of Rac1 activity” value (Rac1; co-incubation with Ang-1) is reported as “reversed”. For the same molecule, the RhoA activity (RhoA; HMVEC-L treated with Ang-1) was “decreased 30 minutes after”, the “effect on endotoxin-induced RhoA activity” value (RhoA; co-incubation with Ang-1) was “reversed” and the “cytoskeleton and junction staining compared to control cells” value (HMVEC-L; Ang-1, confluent HMVEC-L, 30 min) was “increase in cortical actin, peripheral MLC-P, and increased VE-cadherin staining at cell junctions”. For the same molecule, the “effect on endotoxin-induced structural derangements” value (HMVEC-L; endotoxin plus Ang-1) was “reverted the endotoxin-induced derangements to a normal appearance”, the “effect on endotoxin-increased lung permeability” value [1] was “blocked” and the “effect on LPS-induced edema and leukocyte infiltration” value [2] was “reversed”. The “phosphorylation of the p85 subunit of PI3K” value (p85 subunit of PI3K) was “induces phosphorylation of the p85 subunit of PI3K”, the Akt phosphorylation (Akt) was “induces Akt phosphorylation” and the “phosphorylation of p190RhoGAP” value (p190RhoGAP) was “induces phosphorylation of p190RhoGAP”.
